Like-named read-outs stand apart in the source and are kept apart here.
T1: human GDNF protein (human, UniProt P39905 78-211)
T1 construct: Bought
T1 sequence (looked up): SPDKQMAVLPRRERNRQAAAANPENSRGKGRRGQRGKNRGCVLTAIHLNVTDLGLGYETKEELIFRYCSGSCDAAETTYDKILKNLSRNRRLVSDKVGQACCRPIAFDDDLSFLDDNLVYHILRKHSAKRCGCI

T2: human GDF1 protein (human, UniProt P27539 254-372, limits assumed)
T2 construct: Bought
T2 sequence (looked up): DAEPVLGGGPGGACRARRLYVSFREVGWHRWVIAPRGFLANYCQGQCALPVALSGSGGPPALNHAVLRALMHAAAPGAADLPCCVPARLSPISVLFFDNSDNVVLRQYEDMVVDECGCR

T3: human GDF2 protein (human, UniProt Q9UK05 320-429)
T3 construct: Bought
T3 sequence (looked up): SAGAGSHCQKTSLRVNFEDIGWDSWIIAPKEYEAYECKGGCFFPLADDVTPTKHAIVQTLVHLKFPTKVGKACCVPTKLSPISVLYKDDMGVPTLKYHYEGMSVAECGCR

T4: human BMP4 protein (human, UniProt P12644 293-408)
T4 construct: Bought
T4 sequence (looked up): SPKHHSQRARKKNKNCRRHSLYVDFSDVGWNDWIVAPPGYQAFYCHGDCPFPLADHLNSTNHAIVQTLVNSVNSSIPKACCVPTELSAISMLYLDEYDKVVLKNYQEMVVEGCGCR

T5: human GDF11 protein (human, UniProt O95390 299-407)
T5 construct: Bought
T5 sequence (looked up): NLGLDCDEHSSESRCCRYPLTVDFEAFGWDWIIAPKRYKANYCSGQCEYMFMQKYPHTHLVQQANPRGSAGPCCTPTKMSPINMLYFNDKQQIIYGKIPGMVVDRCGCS

T6: human GFRα1 protein (human, UniProt P56159 25-429, limits assumed)
T6 construct: Bought
T6 sequence (looked up): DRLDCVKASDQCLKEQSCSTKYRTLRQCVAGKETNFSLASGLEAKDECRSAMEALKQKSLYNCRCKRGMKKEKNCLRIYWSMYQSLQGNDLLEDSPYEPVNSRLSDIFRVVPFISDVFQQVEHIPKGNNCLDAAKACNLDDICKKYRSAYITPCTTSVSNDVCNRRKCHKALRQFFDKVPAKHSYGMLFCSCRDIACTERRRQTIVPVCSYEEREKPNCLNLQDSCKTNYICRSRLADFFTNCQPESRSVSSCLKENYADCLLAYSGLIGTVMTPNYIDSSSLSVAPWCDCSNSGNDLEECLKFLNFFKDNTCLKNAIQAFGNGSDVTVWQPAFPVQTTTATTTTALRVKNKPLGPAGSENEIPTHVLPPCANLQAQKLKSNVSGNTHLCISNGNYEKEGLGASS

T7: human Activin A protein (human, UniProt P08476 311-426)
T7 construct: Bought; Activin A is by nature a dimer of inhibin beta A chains
T7 sequence (looked up): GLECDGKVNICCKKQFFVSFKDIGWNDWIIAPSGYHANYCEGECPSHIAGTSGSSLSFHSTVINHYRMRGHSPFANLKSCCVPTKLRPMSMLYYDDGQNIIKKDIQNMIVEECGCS

T8: Human GDF15 protein (human, UniProt Q99988 197-308)
T8 construct: Natural GDF15 is said to be a disulfide-linked homodimer; also called Human-GDF15-his
T8 sequence: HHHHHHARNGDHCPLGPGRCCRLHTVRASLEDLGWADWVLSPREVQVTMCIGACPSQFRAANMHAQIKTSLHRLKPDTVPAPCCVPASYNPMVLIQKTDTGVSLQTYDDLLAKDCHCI


Legend:
[1] = molecular target: T1, human GDNF protein; experiment: ELISA, coated protein
[2] = molecular target: T2, human GDF1 protein; experiment: ELISA, coated protein, antibody at 4 µg/mL
[3] = molecular target: T3, human GDF2 protein; experiment: ELISA, coated protein, antibody at 4 µg/mL
[4] = molecular target: T4, human BMP4 protein; experiment: ELISA, coated protein, antibody at 4 µg/mL
[5] = molecular target: T5, human GDF11 protein; experiment: ELISA, coated protein, antibody at 4 µg/mL
[6] = molecular target: T1, human GDNF protein; experiment: ELISA, coated protein, antibody at 4 µg/mL
[7] = molecular target: T6, human GFRα1 protein; experiment: ELISA, coated protein, antibody at 4 µg/mL
[8] = molecular target: T9, human BMP2 protein (human, UniProt P12643 283-396); experiment: ELISA, coated protein, antibody at 4 µg/mL
T9 construct: Bought

[9] = molecular target: T7, human Activin A protein; experiment: ELISA, coated protein, antibody at 4 µg/mL
[10] = molecular target: T8, Human GDF15 protein; experiment: ELISA, coated protein, antibody at 4 µg/mL
[11] = molecular target: human AMH protein (human) (UniProt P03971); experiment: ELISA, coated protein, antibody at 4 µg/mL
[12] = molecular target: human GDF8 protein (human) (UniProt O14793); experiment: ELISA, coated protein, antibody at 4 µg/mL
[13] = molecular target: T2, human GDF1 protein; experiment: ELISA, coated protein, antibody at 4 µg/mL; remark: listed apart in the source
[14] = molecular target: T4, human BMP4 protein; experiment: ELISA, coated protein, antibody at 4 µg/mL; remark: listed apart in the source
[15] = molecular target: T1, human GDNF protein; experiment: ELISA, coated protein, antibody at 4 µg/mL; remark: listed apart in the source
[16] = molecular target: T10, human TGFβ1 protein (human, UniProt P01137 279-390); experiment: ELISA, coated protein, antibody at 4 µg/mL
T10 construct: Bought

[17] = molecular target: T9, human BMP2 protein; experiment: ELISA, coated protein, antibody at 4 µg/mL; remark: listed apart in the source
[18] = molecular target: T7, human Activin A protein; experiment: ELISA, coated protein, antibody at 4 µg/mL; remark: listed apart in the source
[19] = molecular target: T8, Human GDF15 protein; experiment: ELISA, coated protein, antibody at 4 µg/mL; remark: listed apart in the source
[20] = molecular target: T11, human FcRn protein (human, UniProt P55899 24-297); experiment: BLI (Octet RED96e), FcRn on SA sensor, antibody as analyte, binding and dissociation at pH 6.0, 1:1 model
T11 construct: Bought, loaded on a streptavidin (SA) sensor; FcRn is by nature a heterodimer with beta-2-microglobulin

[21] = molecular target: T1, human GDNF protein; experiment: ELISA, coated protein, antibody at 4 µg/mL; remark: listed apart in the source

T11 sequence (P55899 24-297 limits assumed, form in doubt): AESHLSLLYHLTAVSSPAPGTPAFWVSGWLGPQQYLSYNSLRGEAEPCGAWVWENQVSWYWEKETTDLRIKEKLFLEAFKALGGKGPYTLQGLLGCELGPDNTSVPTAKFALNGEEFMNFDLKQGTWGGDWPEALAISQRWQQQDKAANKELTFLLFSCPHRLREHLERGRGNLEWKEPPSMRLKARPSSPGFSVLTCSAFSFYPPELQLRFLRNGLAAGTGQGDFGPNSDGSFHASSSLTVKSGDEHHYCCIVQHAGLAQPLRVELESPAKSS
T9 sequence (P12643 283-396 limits assumed): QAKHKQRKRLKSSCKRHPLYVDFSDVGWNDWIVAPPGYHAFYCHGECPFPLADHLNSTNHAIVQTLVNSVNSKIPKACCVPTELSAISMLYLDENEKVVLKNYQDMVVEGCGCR
T10 sequence (P01137 279-390 limits assumed): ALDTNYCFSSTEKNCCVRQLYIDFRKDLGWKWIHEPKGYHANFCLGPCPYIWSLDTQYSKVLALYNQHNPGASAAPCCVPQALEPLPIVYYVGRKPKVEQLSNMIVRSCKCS

Binder	binding result [1]	OD value [2] [OD 450 nm-620 nm]	OD value [3] [OD 450 nm-620 nm]	OD value [4] [OD 450 nm-620 nm]	OD value [5] [OD 450 nm-620 nm]	OD value [6] [OD 450 nm-620 nm]	OD value [7] [OD 450 nm-620 nm]	OD value [8] [OD 450 nm-620 nm]	OD value [9] [OD 450 nm-620 nm]	OD value [10] [OD 450 nm-620 nm]	other results
Hu21H6D2 (antibody, human IgG1, kappa, V domains shown, Humanized form of murine 21H6D2; human IgG1 constant region with L234A, L235A, G237A and kappa light chain constant region; also called hu21H6D2-IgG1-mut(L234A,L235A,G237A)) VH: QVQLVQSGAEVKKPGASVKVSCKASGYTFTGYIMNWVRQAPGQRLEWMGDIDPYYGDAKYNQKFKGKVTITVDKSASTAYMELSSLRSEDTAVYYCARRDYDHGSFAYWGQGTLVTVSS VL: EIVLTQSPDFQSVTPKEKVTITCSASSSVNYMHWYQQKPDQSPKRLIYDTSKLASGVPSRFSGSGSGTDYTLTINSLEAEDAATYYCQQWSSNPPTFGQGTKLEIKR	no binding (tested: 4 µg/mL)	0.0412	0.0648	0.0411	0.0426	0.105	0.0655	0.0683	0.0632	3.17	
Hu19C4C7 (antibody, human IgG1, kappa, Humanized form of murine 19C4C7; human IgG1 constant region with L234A, L235A, G237A and kappa light chain constant region; also called hu19C4C7-IgG1-mut(L234A,L235A,G237A)) heavy: QVQLVQSGAEVKKPGSSVKVSCKASGYSFTGYIMNWVRQAPGQSLEWMGDIDPYYGGPNYNQKFQGRVTITVDKSTSTAYMELSSLRSEDTAVYYCSRRDYNYGSFAYWGQGTLVTVSSASTKGPSVFPLAPSSKSTSGGTAALGCLVKDYFPEPVTVSWNSGALTSGVHTFPAVLQSSGLYSLSSVVTVPSSSLGTQTYICNVNHKPSNTKVDKKVEPKSCDKTHTCPPCPAPEAAGAPSVFLFPPKPKDTLMISRTPEVTCVVVDVSHEDPEVKFNWYVDGVEVHNAKTKPREEQYNSTYRVVSVLTVLHQDWLNGKEYKCKVSNKALPAPIEKTISKAKGQPREPQVYTLPPSREEMTKNQVSLTCLVKGFYPSDIAVEWESNGQPENNYKTTPPVLDSDGSFFLYSKLTVDKSRWQQGNVFSCSVMHEALHNHYTQKSLSLSPGK light: QIVLTQSPATLSLSPGERATLSCRASSSVNYMHWYQQKPGQAPRPLIYATSNLATGIPARFSGSGSGTDYTLTISSLEPEDFAVYYCQQWSDNPPTFGQGTKLEIKRTVAAPSVFIFPPSDEQLKSGTASVVCLLNNFYPREAKVQWKVDNALQSGNSQESVTEQDSKDSTYSLSSTLTLSKADYEKHKVYACEVTHQGLSSPVTKSFNRGEC	no binding (tested: 4 µg/mL)	0.0433	0.0678	0.0432	0.0368	0.0531	0.0468	0.0457	0.0577	3.27	OD value (OD 450 nm-620 nm) [11]: 0.0887; OD value (OD 450 nm-620 nm) [12]: 0.0505; OD value [13]: 0.201 OD 450 nm-620 nm; OD value [14]: 0.0587 OD 450 nm-620 nm; OD value [15]: 0.241 OD 450 nm-620 nm; OD value [16]: 0.103 OD 450 nm-620 nm; OD value [17]: 0.0764 OD 450 nm-620 nm; OD value [18]: 0.0595 OD 450 nm-620 nm; OD value [19]: 2.47 OD 450 nm-620 nm; Kd [20]: 7.41 nM; koff [20]: 0.0146 s⁻¹; kon [20]: 1.97e+06 M⁻¹ s⁻¹
HuVHH43-3 (Fc fusion, also called huVHH43-IgG1-mut(L234A,L235A,G237A); VHH humanized anti-GDF15 antibody) heavy: QLQLVESGGGLVQPGGSLRLSCAASGHTYGMGWFRQAPGKAREIVSAISRSGSSTYYADSVKGRFTISRDNSKNTLYLQMNSLRAEDTAVYICGASTSALVPTTTGMYAYWGQGTRVTVSSEPKSSDKTHTCPPCPAPEAAGAPSVFLFPPKPKDTLMISRTPEVTCVVVDVSHEDPEVKFNWYVDGVEVHNAKTKPREEQYNSTYRVVSVLTVLHQDWLNGKEYKCKVSNKALPAPIEKTISKAKGQPREPQVYTLPPSREEMTKNQVSLTCLVKGFYPSDIAVEWESNGQPENNYKTTPPVLDSDGSFFLYSKLTVDKSRWQQGNVFSCSVMHEALHNHYTQKSLSLSPGK		0.0504	0.0644	0.0539	0.04		0.27	0.0538	0.0493	3.21	OD value (OD 450 nm-620 nm) [21]: 0.273

Reference: EP4818204A1 (Nanjing Leads Biolabs Co., Ltd., dated 2026)
